Values joined by “and” are separate entries in the source; they are usually repeats but may differ in a detail not shown here. Equal values may be shown once.
Molecular target: M. tuberculosis Lsr2 R86A mutant protein (M. tuberculosis)
Experiment: cross-linking

Substance: M. tuberculosis Lsr2 R86A mutant protein (natural protein)
- stoichiometry N: 2 and 4

Source: paper PMC2367712
